In patent USRE48522 (SURVAC, dated 2021):

How the values were obtained:
[1] = target: T1, HLA-A2 (HLA-A*0201) (human); test: assembly assay: HLA-A2 stabilisation, T2 cells, IP, IEF gel
T1 construct: MHC class I molecule to which the peptide is added in the assembly assay (T2 cells); folded molecules are immunoprecipitated with conformation-dependent antibody

[2] = target: T1, HLA-A2 (HLA-A*0201); test: assembly assay: HLA stabilisation, TAP-deficient cell lysate, W6/32 IP, IEF gel
[3] = target: HLA-A3 (HLA-A*0301) (human); test: as above
[4] = target: HLA-A11 (HLA-A*1101) (human); test: as above
[5] = target: HLA-B35 (human); test: assembly assay: HLA-B35 stabilisation, T2-B35 lysate, W6/32 IP, IEF gel
[6] = target: HLA-A1 (HLA-A*0101) (human); test: assembly assay: HLA stabilisation, TAP-deficient cell lysate, W6/32 IP, IEF gel
[7] = target: HLA-B35 (human); test: assembly assay: HLA-B35 stabilisation; against sur51-59
[8] = target: HLA-B35 (human); test: assembly assay: HLA-B35 stabilisation; against sur46-54

## TLPPAWQPFL [Sur8 (Survivin5-14)]
[1]
  C50: 30 µM

## SVKKQFEEL [Sur5 (Survivin88-96)]
[1]
  binding result: no binding

## SVKKQFEELTL [Sur88-98]
[2]
  binding result: no binding (tested: 100, 10, 1, 0.1, 0.01 µM)

## CAFLSVKKQF [Sur 84-93]
[3]
  binding result: no binding (tested: 100, 10, 1, 0.1, 0.01 µM)
[4]
  binding result: no binding (tested: 40, 4, 0.4, 0.04 µM)

## PTLPPAWQPFL [Sur4-14]
[2]
  binding result: no binding (tested: 100, 10, 1, 0.1, 0.01 µM)

## FLKLDRERA [Sur6 (Survivin101-109)]
[1]
  C50: 30 µM

## KVRRAIEQL [Sur3 (Survivin130-138)]
[1]
  C50: > 100 µM

## TAKKVRRAI [Sur7 (Survivin127-135)]
[1]
  binding result: no binding

## KLDRERAKNK [Sur 103-112]
[3]
  binding result: no binding (tested: 100, 10, 1, 0.1, 0.01 µM)
[4]
  binding result: no binding (tested: 40, 4, 0.4, 0.04 µM)

## RITREEHKK [Sur2b-A3-1]
[3]
  binding result: no binding (tested: 100, 10, 1, 0.1, 0.01 µM)

## DLAQCFFCF [Sur 53-61]
[3]
  binding result: no binding (tested: 100, 10, 1, 0.1, 0.01 µM)
[4]
  binding result: no binding (tested: 40, 4, 0.4, 0.04 µM)

B1: Sur53K9 (peptide)
peptide: DLAQCFFCK
notes: Sur53-61 with the C-terminal F replaced by K
[3]
  binding result: no binding (tested: 100, 10, 1, 0.1, 0.01 µM)

## TPERMAEAGF (also called sur34-46 (as printed once)) [Sur34-43 (Survivin34-43)]
[5]
  C50: > 100 µM
[6]
  binding result: no binding (tested: 40, 4, 0.4, 0.04 µM)

## TPERMAEAGY (Sur34-43 with Y at the C-terminus) [sur34Y9]
[6]
  binding result: no binding (tested: 40, 4, 0.4, 0.04 µM)

## LTLGEFLKL (also called Sur96-104) [Sur1 (Survivin96-104)]
[1]
  C50: > 100 µM

B2: Sur1L2 (peptide)
peptide: LLLGEFLKL
notes: Analogue of survivin96-104 (Sur1) with T at position 2 replaced by L
[1]
  C50: 1 µM

B3: Sur1M2 (peptide)
peptide: LMLGEFLKL
notes: Analogue of survivin96-104 (Sur1) with T at position 2 replaced by M; also called modified survivin96-104
[1]
  C50: 1 µM

B4: Sur5K9 (peptide)
peptide: TLPPAWQPK
notes: Sur5-13 with the C-terminal F replaced by K
[3]
  C50: 2 µM

B5: Sur51Y9 (peptide)
peptide: EPDLAQCFY
notes: Analogue of survivin51-59 with the C-terminal F replaced by Y
[7]
  fold higher affinity relative to the native peptide: 5 to 10 fold
[5]
  C50: 1.5 µM

## EPDLAQCFF [Sur51-59 (Survivin51-59)]
[5]
  C50: 13 µM
[6]
  binding result: no binding (tested: 40, 4, 0.4, 0.04 µM)

## LKDHRISTF [Sur14-22]
[6]
  binding result: no binding (tested: 40, 4, 0.4, 0.04 µM)

## LKDHRISTY (Sur14-22 with Y at the C-terminus) [sur14Y9]
[6]
  binding result: no binding (tested: 40, 4, 0.4, 0.04 µM)

## PTIRRKNLRK [SurEx3-A3-2]
[3]
  binding result: no binding (tested: 100, 10, 1, 0.1, 0.01 µM)

## TIRRKNLRK [SurEx3-A3-1]
[3]
  C50: 0.5 µM

## ELTLGEFLKL (also called Sur95-104) [Sur9 (Survivin95-104)]
[1]
  C50: 10 µM

B6: Sur13K9 (peptide)
peptide: FLKDHRISTK
notes: Sur13-22 with the C-terminal F replaced by K
[3]
  binding result: no binding (tested: 100, 10, 1, 0.1, 0.01 µM)

## DLAQCFFCFK (also called Survivin53-62) [Sur 53-62]
[3]
  C50: 100 µM
[4]
  C50: 5 µM

## PTENEPDLAY (Sur47-56 with Q changed to Y at P10) [Sur47Y10]
[6]
  C50: 0.4 µM

## PTENEPDLAQ (also called Survivin47-56) [Sur47-56]
[6]
  binding result: no binding (tested: 40, 4, 0.4, 0.04 µM)

## QFEELTLGEF (also called Survivin92-101) [Sur92-101]
[6]
  C50: 2 µM

## QSEELTLGEF (Sur92-101 with S at position 2) [Sur92S2]
[6]
  C50: 100 µM

## QTEELTLGEF (Sur92-101 with T at position 2) [Sur92T2]
[6]
  C50: 2 µM

## QFEELTLGEY (Sur92-101 with Y at the C-terminus) [sur92Y9]
[6]
  binding result: no binding (tested: 40, 4, 0.4, 0.04 µM)

B7: Sur54L2 (peptide)
peptide: LLQCFFCFK
notes: Sur54-62 with A at position 2 replaced by L
[3]
  C50: 1 µM

## RISTFKNWPK (Sur18-27 with F changed to K at P10) [Sur18K10]
[3]
  C50: 0.02 µM

## RISTFKNWPF (also called Survivin18-27) [Sur 18-27]
[3]
  binding result: no binding (tested: 100, 10, 1, 0.1, 0.01 µM)
[4]
  binding result: no binding (tested: 40, 4, 0.4, 0.04 µM)

B8: Sur113L2 (peptide)
peptide: ILKETNNKKK
notes: Sur113-122 with A at position 2 replaced by L
[3]
  C50: > 100 µM

## IAKETNNKKK [Sur 113-122]
[3]
  binding result: no binding (tested: 100, 10, 1, 0.1, 0.01 µM)
[4]
  binding result: no binding (tested: 40, 4, 0.4, 0.04 µM)

## CPTENEPDL [Sur46-54 (Survivin46-54)]
[5]
  C50: 20 µM

## LAQCFFCFKEL [Sur54-64]
[2]
  binding result: no binding (tested: 100, 10, 1, 0.1, 0.01 µM)

## ELTLGEFLK [Sur 95-103]
[3]
  C50: > 100 µM
[4]
  binding result: no binding (tested: 40, 4, 0.4, 0.04 µM)

## FEELTLGEF (also called Survivin93-101) [Sur93-101]
[6]
  C50: > 100 µM

## FEELTLGEY (Sur93-101 with Y at the C-terminus) [sur93Y9]
[6]
  binding result: no binding (tested: 40, 4, 0.4, 0.04 µM)

## FSELTLGEF (Sur93-101 with S at position 2) [Sur93S2]
[6]
  C50: 30 µM

## FTELTLGEF (Sur93-101 with T at position 2) [Sur93T2]
[6]
  C50: 1 µM

## ETAKKVRRAI [Sur10 (Survivin126-135)]
[1]
  binding result: no binding

## KIAKETNNKK [Sur 112-121]
[3]
  C50: 1 µM
[4]
  C50: > 100 µM

## ENEPDLAQCF [Sur49-58]
[6]
  binding result: no binding (tested: 40, 4, 0.4, 0.04 µM)

## ENEPDLAQCY (Sur49-58 with Y at the C-terminus) [sur49Y9]
[6]
  binding result: no binding (tested: 40, 4, 0.4, 0.04 µM)

## LPPAWQPFL [Sur6-14 (Survivin6-14)]
[5]
  C50: > 100 µM

## KLDRERAKNKI [Sur103-113]
[2]
  binding result: no binding (tested: 100, 10, 1, 0.1, 0.01 µM)

## FLKLDRERAK [Sur 101-110]
[3]
  binding result: no binding (tested: 100, 10, 1, 0.1, 0.01 µM)
[4]
  binding result: no binding (tested: 40, 4, 0.4, 0.04 µM)

B9: Sur46Y9 (peptide)
peptide: CPTENEPDY
notes: Analogue of survivin46-54 with the C-terminal L replaced by Y
[8]
  fold higher affinity relative to the native peptide: 5 to 10 fold
[5]
  C50: 4 µM

## RAIEQLAAM [Sur2 (Survivin133-141)]
[1]
  binding result: no binding

## KIAKETNNK [Sur 112-120]
[3]
  C50: 2 µM
[4]
  C50: 1 µM

## MAEAGFIHY (Sur38-46 with C changed to Y at P9) [Sur38Y9]
[6]
  C50: 0.8 µM

## MAEAGFIHC (also called Survivin38-46) [Sur38-46]
[6]
  binding result: no binding (tested: 40, 4, 0.4, 0.04 µM)
